T1: Kis antitoxin of the parD locus of E. coli plasmid R1 (wild type), P13975
T1 chain: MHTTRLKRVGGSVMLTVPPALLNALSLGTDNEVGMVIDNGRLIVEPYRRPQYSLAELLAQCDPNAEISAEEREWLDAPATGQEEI

B1: Kid toxin (endoribonuclease) of the parD locus of E. coli plasmid R1 (protein)
chain: MERGEIWLVSLDPTAGHEQQGTRPVLIVTPAAFNRVTRLPVVVPVTSGGNFARTAGFAVSLDGVGIRTTGVVRCDQPRTIDMKARGGKRLERVPETIMNEVLGRLSTILT

Tests used:
[1] = molecular target: Kid toxin (endoribonuclease) of the parD locus of E. coli plasmid R1 (Escherichia coli plasmid R1) (UniProt P13976); assay: cell-based or functional assay
[2] = molecular target: T1, Kis antitoxin of the parD locus of E. …

Molecule | repA/copB ratio by Real Time-PCR, kis17kid sample against kiskid sample [1] | cleavage of dnaB mRNA in vitro by purified Kid (4 pmols), alone or with Kis (6 pmols); primer extension [2]
Kis17, thermo-sensitive mutant Kis antitoxin (P18L) (from UniProt P13975 1-85) | 38% | 
B1 |  | dnaB-mRNA is cleaved by Kid in vitro, and that this effect is inhibited when Kis is added to the reaction
